Where two headings read alike, the source gives them in different places.
Legend:
[1] = biological target: RSV F protein (UniProt P03420); assay: ELISA, 100 ng/well RSV F protein coated, HRP anti-human IgG (Fc specific), QuantaBlu fluorescence (10 min)
[2] = biological target: T1, hLGR7 (UL-hLGR7-Cre-Luc reporter cell line) (human ('hLGR7')) (UniProt Q9HBX9); assay: cell-based or functional assay
T1 sequence (looked up): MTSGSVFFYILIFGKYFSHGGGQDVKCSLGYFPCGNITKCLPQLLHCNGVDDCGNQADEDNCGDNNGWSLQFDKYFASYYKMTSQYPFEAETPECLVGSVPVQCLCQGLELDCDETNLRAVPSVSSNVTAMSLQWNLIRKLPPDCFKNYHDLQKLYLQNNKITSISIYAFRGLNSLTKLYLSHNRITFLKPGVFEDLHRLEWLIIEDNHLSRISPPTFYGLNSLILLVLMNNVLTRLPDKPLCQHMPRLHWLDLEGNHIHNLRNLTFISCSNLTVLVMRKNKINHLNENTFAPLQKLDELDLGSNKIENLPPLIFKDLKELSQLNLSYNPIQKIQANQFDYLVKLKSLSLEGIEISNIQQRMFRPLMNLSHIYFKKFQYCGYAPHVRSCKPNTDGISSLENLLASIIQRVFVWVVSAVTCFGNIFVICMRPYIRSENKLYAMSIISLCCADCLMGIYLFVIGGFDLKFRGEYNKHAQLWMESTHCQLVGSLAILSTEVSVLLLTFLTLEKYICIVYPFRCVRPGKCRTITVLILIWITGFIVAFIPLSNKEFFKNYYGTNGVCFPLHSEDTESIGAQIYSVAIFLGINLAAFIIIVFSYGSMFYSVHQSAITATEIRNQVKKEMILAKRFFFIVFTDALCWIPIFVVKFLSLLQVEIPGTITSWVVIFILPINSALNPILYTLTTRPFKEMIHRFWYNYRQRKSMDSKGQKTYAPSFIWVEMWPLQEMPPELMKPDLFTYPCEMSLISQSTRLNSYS

[3] = biological target: T2, relaxin receptor (LGR7); assay: cell-based or functional assay
T2 sequence (Q9HBX9 whole entry, species assumed, looked up): T1 sequence (looked up)

[4] = biological target: T2, relaxin receptor (LGR7); assay: cell-based or functional assay; remark: listed apart in the source

RSV F protein, sequence (P03420 26-524): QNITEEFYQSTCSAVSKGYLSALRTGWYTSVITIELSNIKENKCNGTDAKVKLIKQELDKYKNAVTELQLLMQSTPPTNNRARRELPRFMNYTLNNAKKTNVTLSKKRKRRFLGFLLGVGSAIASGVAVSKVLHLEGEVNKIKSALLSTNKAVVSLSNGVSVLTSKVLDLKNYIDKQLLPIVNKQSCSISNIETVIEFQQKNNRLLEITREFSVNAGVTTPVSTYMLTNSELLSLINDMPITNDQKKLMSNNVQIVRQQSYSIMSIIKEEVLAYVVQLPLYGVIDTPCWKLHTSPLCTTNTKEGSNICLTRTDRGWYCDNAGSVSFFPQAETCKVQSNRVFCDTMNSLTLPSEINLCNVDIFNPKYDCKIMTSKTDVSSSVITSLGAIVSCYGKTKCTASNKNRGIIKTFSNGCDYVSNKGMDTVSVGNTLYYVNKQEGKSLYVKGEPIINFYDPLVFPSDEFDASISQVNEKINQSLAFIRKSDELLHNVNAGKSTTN

Row | Substance | Kd [1] [nM] | EC50, UL-hLGR7-Cre-Luc reporter cell line [2] [nM] | SA [2] [units/µg] | EC50, CRE-luciferase reporter assay [3] [nM] | EC50, CRE-luciferase reporter assay [4] [nM]
1 | Herceptin (antibody) | 1350 | – | – | – | –
2 | relaxin-2 peptide (from UniProt P04090 25-185) (ligand) | – | 0.02 | 1000 | 0.0223 | 0.022

— patent US20190263882A1
